From patent US20250332257A1 (published 2025) come the findings set out here.

Numbering of substitutions follows the chain as printed.

The experiment has as its target T1, HPV E6 peptide on HLA-A*11:01 (human).
T1 peptide: TTLEQQYNK
Description: multimer staining.

B1: TCR013 (TCR, V domains shown)
Valpha: GQQVMQIPQYQHVQEGEDFTTYCNSSTTLSNIQWYKQRPGGHPVFLIQLVKSGEVKKQKRLTFQFGEAKKNSSLHITATQTTDVGTYFCAGPKITGGGNKLTFGTGTQLKVEL
Vbeta: DSGVTQTPKHLITATGQRVTLRCSPRSGDLSVYWYQQSLDQGLQFLIQYYNGEERAKGNILERFSAQQFPDLHSELNLSSLELGDSALYFCASSVGGGPNYGYTFGSGTRLTVV
Turning to B1, the binding result is “recognises”.

B2: TCR028 (TCR, V domains shown)
Valpha: B1 Valpha with K93I, I94L
Vbeta: DSGVTQTPKHLITATGQRVTLRCSPRSGDLSVYWYQQSLDQGLQFLIQYYNGEERAKGNILERFSAQQFPDLHSELNLSSLELGDSALYFCASGLSGPNTGELFFGEGSRLTVL
With B2, the binding result is recorded as “recognises”.

B3: TCR090 (TCR, V domains shown)
Valpha: B1 Valpha with T81L, K93V, I94L
Vbeta: B2 Vbeta with K9R, H10Y, G94S, L95V, S96G
For B3, the binding result is “recognises”.

B4: TCR010 (TCR, V domains shown)
Valpha: AQSVTQLDSHVSVSEGTPVLLRCNYSSSYSPSLFWYVQHPNKGLQLLLKYTSAATLVKGINGFEAEFKKSETSFHLTKPSAHMSDAAEYFCVVSLSGGYNKLIFGAGTRLAVHP
Vbeta: DSGVTQTPKHLITATGQRVTLRCSPRSGDLSVYWYQQSLDQGLQFLIQYYNGEERAKGNILERFSAQQFPDLHSELNLSSLELGDSALYFCASSVTGSGYTFGSGTRLTVV
On to B4, for which the binding result is given as “recognises”.
